{"source": "patent US20030223992A1", "about": "(SCHERING, published 2003)", "molecular_target": "T1, Human SP9155 receptor (human, UniProt Q96P65 1-431)", "T1 sequence": "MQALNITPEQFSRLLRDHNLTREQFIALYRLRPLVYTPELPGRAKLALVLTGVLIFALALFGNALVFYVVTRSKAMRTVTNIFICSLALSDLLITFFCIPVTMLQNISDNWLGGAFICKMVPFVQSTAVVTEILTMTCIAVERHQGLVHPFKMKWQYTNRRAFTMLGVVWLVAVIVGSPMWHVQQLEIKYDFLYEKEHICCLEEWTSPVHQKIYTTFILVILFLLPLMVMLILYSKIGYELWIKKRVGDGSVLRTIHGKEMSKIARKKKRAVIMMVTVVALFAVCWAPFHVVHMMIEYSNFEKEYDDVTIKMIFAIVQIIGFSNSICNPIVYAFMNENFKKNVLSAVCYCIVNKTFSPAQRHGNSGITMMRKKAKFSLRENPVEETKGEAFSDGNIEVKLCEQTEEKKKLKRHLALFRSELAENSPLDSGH", "test": "cell-based or functional assay", "note": "Where no end group is shown, it is not given here."}
{"binder": "GGFSFRF-NH2", "note": "[Human P52]", "values": [{"measurement": "EC50 (nM), Ca2+ flux (FLIPR) in HEK293 cells transfected with SP9155 receptor", "result": 245, "unit": "nM"}]}
{"binder": "EHAGCRFRF-NH2", "note": "[Human P51]", "values": [{"measurement": "EC50 (nM), Ca2+ flux (FLIPR) in HEK293 cells transfected with SP9155 receptor", "result": 1560, "unit": "nM"}]}
{"binder": "KGGFSFRF-NH2", "note": "[Human P513]", "values": [{"measurement": "EC50 (nM), Ca2+ flux (FLIPR) in HEK293 cells transfected with SP9155 receptor", "result": 258, "unit": "nM"}]}
{"binder": "KKGGFSFRF-NH2", "note": "[Human P517]", "values": [{"measurement": "EC50 (nM), Ca2+ flux (FLIPR) in HEK293 cells transfected with SP9155 receptor", "result": 235, "unit": "nM"}]}
